Test results published in patent publication EP0971740B1.

How the values were obtained:
[1] = target: FnBP purified from S. aureus strain Newman (Staphylococcus aureus); assay: competition ELISA on FnBP coated at 5 µg/ml; competitor anti-D121-34 F(ab')2 at 100 µg/ml
[2] = target: FnBP purified from S. aureus strain Newman (Staphylococcus aureus); assay: competition ELISA on FnBP coated at 5 µg/ml; competitor anti-D320-33 F(ab')2 at 100 µg/ml

## Human plasma Fn (from UniProt P02751 32-2477) (ligand)
[1]
  concentration of soluble Fn at which F(ab')2 recognition of FnBP was virtually eliminated: 50 µg/mL
[2]
  concentration of soluble Fn at which F(ab')2 recognition of FnBP was virtually eliminated: 50 µg/mL
